Target: recombinant His-tag PCNA (proliferating cell nuclear antigen) (human, UniProt P12004 1-261)
Assay: SPR

recombinant His-tag PCNA (proliferating cell nuclear antigen), sequence (P12004 whole entry): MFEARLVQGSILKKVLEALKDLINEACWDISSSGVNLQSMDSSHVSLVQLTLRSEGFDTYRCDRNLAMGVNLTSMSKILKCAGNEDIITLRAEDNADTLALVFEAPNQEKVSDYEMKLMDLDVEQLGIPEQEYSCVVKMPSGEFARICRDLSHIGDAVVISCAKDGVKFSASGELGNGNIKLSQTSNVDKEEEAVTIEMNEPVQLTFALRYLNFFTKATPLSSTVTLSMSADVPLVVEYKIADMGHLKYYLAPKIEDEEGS

B1: NKp44-Ig (Fc fusion, UniProt O95944 22-192, looked up)
chain: QSKAQVLQSVAGQTLTVRCQYPPTGSLYEKKGWCKEASALVCIRLVTSSKPRTMAWTSRFTIWDDPDAGFFTVTMTDLREEDSGHYWCRIYRPSDNSVSKSVRFYLVVSPASASTQTSWTPRDLVSSQTQTQSCVPPTAGARQAPESPSTIPVPSQPQNSTLRPGPAAPIA
For B1, the Kd was 3.4 nM.
